One experiment concerns the target T1, TGF-β1 (Homo sapiens, UniProt P01137).
T1 construct: The mature processed cytokines produced from the members of the gene family show almost 100% amino acid identity between species; purchased Collaborative Research (Bedford, Mass.)
Kind of experiment: 3H-Thymidine incorporation in Mv1Lu cells: neutralization of the antiproliferative activity of TGF-β1. The experiment is classed as cell-based. The protocol:
Mv1Lu cells were seeded at 20,000 cells/well in a 96 well plate containing 0.2% FCS in α-MEM and incubated with the indicated concentrations of proteins for 18 hr. The cells were then pulsed with 8 μCi/ml methyl-^3 H-thymidine (NEN, Boston, Mass.) for 6 hr. Cells were trypsinized, harvested onto filtermats and counted in a β-Counter. Percent neutralization is defined as incorporation in the presence of 12 pM TGF-β1 alone set at 0%, and incorporation without additions as 100%. The difference in ^3 H-thymidine incorporation between 0% and 100% was 7.5 fold. Each point in FIG. 1 and FIG. 12 represents the mean of duplicate determinations, and the results are representative of three experiments. […] Before use, bovine thyroglobulin was spun twice in a centricon (M.W. cutoff of 10,000 Da) micro-concentrator (Amicon, Beverly, Mass.) to remove any excess Iodine and T3/T4 thyroid hormones.
For orientation: Dividing cells build labelled thymidine or BrdU into new DNA.

The subject of a further experiment is Mv1Lu cells. Nature of the experiment: 3H-Thymidine incorporation in Mv1Lu cells: proliferation / growth. The experiment is classed as cell-based, mink. The note with it: absence of cytokines, FIG. 12; read-out: IC50, stimulated proliferation of Mv1Lu cells.
The target in the next experiment is T2, TGF-β2 (Homo sapiens, UniProt P61812).
T2 construct: The mature processed cytokines produced from the members of the gene family show almost 100% amino acid identity between species
T2 sequence (P61812 303-414 limits assumed): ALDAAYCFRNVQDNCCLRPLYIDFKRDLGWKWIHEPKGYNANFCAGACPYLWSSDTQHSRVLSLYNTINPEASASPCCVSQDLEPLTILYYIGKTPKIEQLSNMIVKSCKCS
Kind of experiment: BIAcore surface plasmon resonance, binding to immobilized TGF-β2. The note with it: ligand TGF-β2. On the procedure: (§1) In this system, a purified protein serving as the ligand is covalently coupled to a carboxymethylated dextran surface, and binding molecules (i.e. the analyte) are passed in a fluid phase across the surface. Binding of the analyte to ligand causes a change in reflected light which is directly proportional to mass bound, and is measured in arbitrary response units (R.U.). Analyte-ligand binding is observed as both increasing response with time during the injection of analyte, and the difference in the position of the baseline before and after injection.
(§2) Schuster, R. V. Swanson, L. A. Alex, R. B. Bourret, M. I. Simon, Nature 365, 343 (1993). 1000 R.U. equals approximately 1 ng/mm^2. The running buffer was 20 mM Hepes (pH 7.2), 150 mM NaCl and the flow rate for all sensorgrams was 3 μl/min.
Regeneration of the surface to remove bound analyte was done by injection of 10 μl of 20 mM NaOH. To cyclize TRH1 peptides, the material was reduced with 5 mM DTT then brought to a final concentration of 60 μM in 25 mM ammonium acetate (pH 8.5). After stirring in the dark for 30 min at 20° C. with 30 mM potassium ferricyanide, the peptide was mixed with AG3-X4A resin (BioRad), filtered, lyophilization and desalted on a 50×2.5 cm column of Biogel P2 (Pharmacia) developed in water, and further purified by reverse phase HPLC.
Data was analyzed using the BIA-evaluation software (Pharmacia Biosensor). The association rate constant, kass, was calculated by first plotting the change in response with time versus response (i.e. dR/dT vs R). When the slope of the line from this graph is plotted versus analyte concentration (i.e d(dR/dT)/dR vs C), kass is obtained from the slope of the line. The dissociation rate constant, kdiss, is obtained during the decrease in response with time after analyte injection is discontinued. Specifically, kdiss was obtained from the slope of the line in a plot of ln(Rt1 /Rtn) vs time. The affinity constants were calculated from KD =kdiss /kass. […]
Background: Surface plasmon resonance follows binding to a sensor surface in real time, without labels.

For the next experiment, the target named is T3, BMP-4 (Homo sapiens, UniProt P12644).
T3 sequence (P12644 293-408): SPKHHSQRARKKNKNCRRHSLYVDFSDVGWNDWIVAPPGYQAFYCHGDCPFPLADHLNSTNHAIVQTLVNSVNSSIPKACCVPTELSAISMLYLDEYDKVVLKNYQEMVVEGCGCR
Kind of experiment: BIAcore surface plasmon resonance, binding to immobilized BMP-4. Conditions: Table 2 (calculations repeated); ligand BMP-4; KD = kdiss/kass. The protocol: as §1, §2
Regeneration of the surface to remove bound analyte was done by injection of 10 μl of 20 mM NaOH. To cyclize TRH1 peptides, the material was reduced with 5 mM DTT then brought to a final concentration of 60 μM in 25 mM ammonium acetate (pH 8.5). […]
Data was analyzed using the BIA-evaluation software (Pharmacia Biosensor). The association rate constant, kass, was calculated by first plotting the change in response with time versus response (i.e. dR/dT vs R). […] The affinity constants were calculated from KD =kdiss /kass. […]

T1 sequence (P01137 279-390 limits assumed): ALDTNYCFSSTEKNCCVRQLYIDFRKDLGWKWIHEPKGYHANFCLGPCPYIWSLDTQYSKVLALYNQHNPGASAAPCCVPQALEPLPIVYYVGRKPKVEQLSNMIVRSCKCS

A word on the Kd: it is the equilibrium constant for the complex coming apart. In the case of “Fetuin: Bovine fetal fetuin, glycoprotein obtained by ammonium sulfate fractionation of FCS and gel filtration (Sigma)”, the “Maximal effect, percent neutralization” value with TGF-β1 (12 pM TGF-β1, FIG. 1) is “approximately 150%”. Besides, the IC50 is about 3 µM in the experiment with TGF-β1 (18 pM human TGF-β1, FIG. 12, read-out: IC50, blocking of anti-proliferative activity of exogenously-added TGF-β1) and 8 µM in the experiment with Mv1Lu cells. For the same substance, the kass with TGF-β2 (Table 1) and with TGF-β2 (Table 2 (calculations repeated)) was 550 ± 120 M⁻¹ s⁻¹ in each case. The Kd with BMP-4 was 0.12 µM.
